Reference: the Human Domainome abundance scans (Beltran et al. 2025)
± gives the uncertainty stated by the source.

B1: LIM and senescent cell antigen-like-containing domain protein 2, residues 13 to 71; numbered along this chain, Q7Z4I7 (parent)
chain: AVCQRCQARFSPAERIVNSNGELYHEHCFVCAQCFRPFPEGLFYEFEGRKYCEHDFQML

Variants of: B1
Experiment: abundance fitness (aPCA) (normalised: wild type 0, dead -1); higher = more abundant; growth selection in yeast, the domain comes from the species named
Conditions: Homo sapiens

Abundance fitness of substitutions, site by site:
S19: C -0.117 ± 0.096 | V -0.187 ± 0.074 | P -0.29 ± 0.12 | K -0.189 ± 0.12 | A -0.106 ± 0.073 | D 0.058 ± 0.11 | Y -0.455 ± 0.15 | H -0.19 ± 0.12 | T -0.064 ± 0.076 | Q -0.068 ± 0.094 | E -0.015 ± 0.097 | W -0.16 ± 0.085 | F -0.22 ± 0.13 | L -0.132 ± 0.071 | G 0.015 ± 0.07 | R 0.113 ± 0.063 | I -0.151 ± 0.1
E14: H -0.451 ± 0.27 | N -0.343 ± 0.14 | L -0.512 ± 0.07 | A 0.048 ± 0.076 | D -0.075 ± 0.11 | M -0.41 ± 0.097 | W -0.428 ± 0.087 | P -0.577 ± 0.11 | I -0.611 ± 0.19 | F -0.658 ± 0.17 | S -0.034 ± 0.064 | C -0.156 ± 0.092 | Y -0.224 ± 0.12 | V -0.184 ± 0.067 | G -0.05 ± 0.076 | R -0.651 ± 0.071 | Q -0.106 ± 0.079 | T -0.242 ± 0.082
A1: Q -0.313 ± 0.18 | S 0.002 ± 0.12 | P -0.739 ± 0.32 | E 0.161 ± 0.11 | N -0.481 ± 0.41 | K 0.066 ± 0.15 | T 0.176 ± 0.16 | R -0.573 ± 0.22 | L -0.149 ± 0.15 | D -0.256 ± 0.21 | V -0.058 ± 0.069 | G -0.135 ± 0.081 | W -0.327 ± 0.47
R15: G -0.144 ± 0.054 | L -0.255 ± 0.049 | C -0.198 ± 0.072 | S 0.098 ± 0.045 | E 0.01 ± 0.069 | D -0.009 ± 0.078 | F -0.467 ± 0.085 | A -0.178 ± 0.06 | T 0.037 ± 0.06 | Y -0.153 ± 0.083 | M -0.069 ± 0.076 | K 0.147 ± 0.075 | P -0.03 ± 0.076 | N -0.184 ± 0.1 | V -0.107 ± 0.05 | W -0.595 ± 0.085 | H -0.168 ± 0.1 | Q -0.021 ± 0.065 | I -0.017 ± 0.067
V2: P -0.274 ± 0.093 | M 0.093 ± 0.088 | F -0.324 ± 0.11 | S -0.445 ± 0.11 | D -0.128 ± 0.16 | C -0.303 ± 0.14 | R -0.002 ± 0.082 | K 0.018 ± 0.14 | E -0.081 ± 0.093 | I 0.019 ± 0.1 | G 0.129 ± 0.11 | W -0.546 ± 0.24 | L -0.144 ± 0.062 | N -0.139 ± 0.13 | A -0.53 ± 0.13 | T 0.011 ± 0.098 | H -0.238 ± 0.17 | Y -0.097 ± 0.11
C6: K -0.469 ± 0.11 | E -0.968 ± 0.24 | T -0.935 ± 0.16 | A -0.84 ± 0.18 | F -0.677 ± 0.12 | G -0.757 ± 0.1 | D -1.03 ± 0.29 | P -0.896 ± 0.14 | Y -0.732 ± 0.16 | R -0.544 ± 0.065 | I -1.16 ± 0.36 | Q -0.878 ± 0.16 | H -1.08 ± 0.31 | S -0.804 ± 0.084 | N -0.679 ± 0.15 | M -0.34 ± 0.098 | W -0.769 ± 0.095
A13: K 0.053 ± 0.072 | G -0.182 ± 0.083 | P -0.076 ± 0.078 | Q -0.245 ± 0.11 | C -0.176 ± 0.071 | I -0.581 ± 0.17 | H 0.017 ± 0.13 | L -0.039 ± 0.055 | N 0.186 ± 0.13 | T 0.035 ± 0.071 | D 0.142 ± 0.16 | V -0.327 ± 0.081 | M -0.22 ± 0.1 | W -0.372 ± 0.083 | E 0.078 ± 0.096 | F -0.781 ± 0.15 | Y -0.207 ± 0.12 | R -0.211 ± 0.059
N18: W -0.639 ± 0.12 | P -0.191 ± 0.086 | A -0.227 ± 0.092 | L -0.615 ± 0.071 | H -0.281 ± 0.2 | V -0.316 ± 0.08 | G -0.15 ± 0.11 | M -0.323 ± 0.12 | C -0.089 ± 0.16 | Y -0.603 ± 0.23 | D -0.068 ± 0.28 | T -0.312 ± 0.096 | F 0.11 ± 0.18 | E -0.116 ± 0.094 | Q -0.06 ± 0.084 | I -0.244 ± 0.17 | R -0.202 ± 0.072 | S -0.333 ± 0.07 | K -0.411 ± 0.14
R9: P 0.051 ± 0.068 | I -0.039 ± 0.14 | Q 0.039 ± 0.089 | Y -0.292 ± 0.1 | D -0.019 ± 0.11 | W -0.034 ± 0.079 | C -0.164 ± 0.11 | A -0.104 ± 0.076 | E -0.084 ± 0.089 | G 0.01 ± 0.07 | H -0.047 ± 0.096 | T -0.019 ± 0.068 | V -0.019 ± 0.063 | S 0.212 ± 0.066 | M -0.075 ± 0.074 | L -0.122 ± 0.052 | N -0.135 ± 0.11 | F -0.408 ± 0.12
Q7: I -0.231 ± 0.061 | V -0.121 ± 0.05 | H 0.003 ± 0.068 | M 0.025 ± 0.053 | A 0.057 ± 0.061 | G 0.05 ± 0.053 | P -0.802 ± 0.078 | W 0.007 ± 0.052 | K -0.832 ± 0.12 | E -0.668 ± 0.082 | N -0.849 ± 0.12 | S -0.067 ± 0.042 | T 0.156 ± 0.051 | F -0.083 ± 0.064 | C -0.194 ± 0.062 | D -0.54 ± 0.11 | Y -0.11 ± 0.072 | L 0.068 ± 0.04
I16: R -0.114 ± 0.048 | L -0.023 ± 0.042 | A -0.1 ± 0.058 | S -0.04 ± 0.043 | N -0.174 ± 0.065 | G -0.178 ± 0.085 | E -0.341 ± 0.13 | P -0.104 ± 0.056 | T 0.07 ± 0.051 | Q -0.069 ± 0.061 | D -0.267 ± 0.091 | C -0.069 ± 0.078 | V -0.194 ± 0.059 | M 0.026 ± 0.055 | Y -0.2 ± 0.082 | K 0.098 ± 0.057 | W -0.146 ± 0.063
V17: T -0.048 ± 0.068 | N -0.147 ± 0.14 | F -0.019 ± 0.095 | R -0.117 ± 0.049 | K 0.03 ± 0.1 | G -0.372 ± 0.079 | C -0.298 ± 0.13 | P -0.727 ± 0.11 | L -0.003 ± 0.053 | M -0.248 ± 0.085 | H 0.01 ± 0.12 | W -0.492 ± 0.077 | I 0.009 ± 0.12 | D -0.298 ± 0.24 | E -0.251 ± 0.087 | Y -0.262 ± 0.14
F10: P -0.304 ± 0.093 | C -0.139 ± 0.086 | S -0.475 ± 0.07 | L 0.05 ± 0.049 | M -0.002 ± 0.084 | D -1.05 ± 0.24 | A -0.389 ± 0.1 | I 0.022 ± 0.1 | T -0.093 ± 0.068 | Y -0.359 ± 0.1 | Q -0.707 ± 0.1 | H -0.343 ± 0.16 | K -0.548 ± 0.1 | N -0.607 ± 0.19 | W -0.523 ± 0.1 | R -0.601 ± 0.081
R5: G 0.231 ± 0.07 | W -0.184 ± 0.081 | N -0.081 ± 0.13 | E 0.037 ± 0.077 | F -0.347 ± 0.15 | V 0.119 ± 0.061 | H 0.069 ± 0.15 | Q 0.066 ± 0.073 | D 0.104 ± 0.12 | K 0.052 ± 0.082 | S 0.209 ± 0.062 | C -0.379 ± 0.2 | A 0.186 ± 0.079 | P -0.625 ± 0.15 | I 0.078 ± 0.14 | M 0.129 ± 0.077 | Y 0.29 ± 0.11
A8: D -0.119 ± 0.11 | S 0.076 ± 0.045 | T 0.015 ± 0.054 | C 0.03 ± 0.067 | F -0.039 ± 0.065 | K 0.166 ± 0.053 | Q 0.147 ± 0.061 | P -0.797 ± 0.091 | H -0.041 ± 0.1 | N -0.03 ± 0.08 | I 0.073 ± 0.073 | V 0.071 ± 0.061 | G 0.184 ± 0.061 | L 0.064 ± 0.038 | R 0.181 ± 0.041 | W 0.109 ± 0.051 | M 0.151 ± 0.062 | E 0.327 ± 0.077
P12: R -0.212 ± 0.069 | S 0.014 ± 0.061 | Y -0.093 ± 0.23 | C 0.188 ± 0.096 | M 0.014 ± 0.09 | A 0.067 ± 0.063 | L -0.059 ± 0.055 | I 0.045 ± 0.081 | T 0.003 ± 0.075 | Q -0.126 ± 0.09 | G -0.047 ± 0.064 | H 0.186 ± 0.22 | N -0.109 ± 0.49 | D 0.145 ± 0.22 | F -0.036 ± 0.13 | E 0.035 ± 0.12
C3: G -0.499 ± 0.083 | F -1.11 ± 0.25 | L -0.705 ± 0.088 | K -1.08 ± 0.23 | A -0.682 ± 0.12 | Q -1.33 ± 0.32 | N -0.687 ± 0.13 | H -1 ± 0.23 | D -0.894 ± 0.24 | M -0.843 ± 0.14 | E -0.468 ± 0.17 | S -0.832 ± 0.11 | Y -0.887 ± 0.18 | W -0.42 ± 0.13 | I -1.25 ± 0.35 | R -1.21 ± 0.18 | T -1.22 ± 0.26
N20: F -0.359 ± 0.17 | G 0.084 ± 0.065 | A -0.005 ± 0.087 | D 0.313 ± 0.15 | C -0.038 ± 0.1 | E -0.282 ± 0.11
S11: A 0.137 ± 0.063 | F -0.227 ± 0.12 | T -0.087 ± 0.067 | E 0.019 ± 0.078 | I -0.248 ± 0.12 | Y -0.18 ± 0.15 | H -0.407 ± 0.16 | G -0.011 ± 0.063 | N -0.105 ± 0.12 | M 0.004 ± 0.067 | R -0.175 ± 0.061 | V -0.227 ± 0.055 | K -0.055 ± 0.074 | D 0.102 ± 0.091 | Q -0.075 ± 0.08 | C -0.155 ± 0.13 | W -0.131 ± 0.08 | L -0.053 ± 0.05
Q4: V -0.228 ± 0.068 | N 0.679 ± 0.16 | L 0.184 ± 0.059 | T 0.051 ± 0.078 | W -0.528 ± 0.1 | D 0.357 ± 0.11 | F -0.161 ± 0.17 | K -0.007 ± 0.091 | I -0.216 ± 0.18 | G -0.127 ± 0.071 | M 0.209 ± 0.1 | H 0.035 ± 0.13 | C 0.065 ± 0.11 | R -0.073 ± 0.064 | S 0.029 ± 0.064 | P -0.145 ± 0.11 | E -0.133 ± 0.082 | Y 0.086 ± 0.11
